Measurements: article PMC8351461

Biological target: Nucleocapsid protein (N) (SARS-CoV-2, UniProt P0DTC9 1-419)
Test: EMSA; no sdAb; Hill fixed at 5
Conditions: protein: recombinant, tags: His6 or His6-MBP N-terminal fusion vector, TEV cleavage, chain copies: 2

B1: 7mer dsRNA (dsRNA)
RNA 1: CACUGAC
RNA 2: GUCAGUG
label: 5'-FAM on strand 1, blunt
  Kd: 480 ± 30 nM

## CACUGAC (ssRNA) [7mer ssRNA]
label: 5'-FAM, single strand
  Kd: 560 ± 60 nM
